Measurements from patent US20220259325A1.

Legend:
[1] = biological target: human MASP-1 (protein in human serum) (human)
[2] = biological target: human MASP-2 (protein in human serum or plasma) (human)

Chain of human MASP-1 (protein in human serum) (human) (chain, as listed by the source): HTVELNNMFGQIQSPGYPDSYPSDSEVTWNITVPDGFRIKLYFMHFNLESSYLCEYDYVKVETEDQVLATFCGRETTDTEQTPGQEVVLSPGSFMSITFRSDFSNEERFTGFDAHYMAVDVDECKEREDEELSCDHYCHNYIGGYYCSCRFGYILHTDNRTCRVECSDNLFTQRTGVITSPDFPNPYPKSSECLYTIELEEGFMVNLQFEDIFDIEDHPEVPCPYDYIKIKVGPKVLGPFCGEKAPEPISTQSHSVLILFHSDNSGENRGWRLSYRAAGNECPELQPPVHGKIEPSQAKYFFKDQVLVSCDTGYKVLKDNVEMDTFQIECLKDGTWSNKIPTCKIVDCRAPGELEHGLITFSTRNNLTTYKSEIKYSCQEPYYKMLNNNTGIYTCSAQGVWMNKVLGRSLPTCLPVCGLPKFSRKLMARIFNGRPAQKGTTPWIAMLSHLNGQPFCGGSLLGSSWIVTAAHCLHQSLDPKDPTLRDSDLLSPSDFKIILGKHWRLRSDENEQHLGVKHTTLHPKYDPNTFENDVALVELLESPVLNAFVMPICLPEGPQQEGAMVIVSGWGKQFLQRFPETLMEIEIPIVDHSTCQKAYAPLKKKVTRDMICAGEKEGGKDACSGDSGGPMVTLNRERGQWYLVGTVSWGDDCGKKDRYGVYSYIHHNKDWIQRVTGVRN

C3b deposition from 1% normal human serum on mannan-coated wells (IC50) [1] [nM] | C3b deposition from 1% normal human serum on mannan-coated wells (IC50) [2] [nM] | Substance
27 | – | SGMI-1Fc (mature polypeptide fusion comprising SGMI-1, linker #1 and human IgG1-Fc) (Fc fusion)
– | 300 | SGMI-2Fc (mature polypeptide fusion comprising SGMI-2, linker #1 and human IgG1-Fc) (Fc fusion)
